# Measurements taken from US20100261660A1 (published 2010).
# Changes are numbered by the printed parent chain.
# B1: Round 2 CTLA4BP 2x1-c9 (ligand)
# chain: VIHVTKEVKEVATLSCGHNVSAEELAQTRIYWQKEKKMVLTMMSGDMNIWPEYKNRTIFDITNNLSIVILALRPSDEGTYECVVLEYEKDAFKREHLAEVMLSVKADFPTPSITDFEIPTSNIRRIICSTSGGFPEPRLAWMEDGEELNAISTTASQDPETELYTVSSKLDFNMTTNHSFMCLIKYGHLRVNQTFNWNTPKQEHFPDNLLPSWAITLISVNGIFVICCLTHCFAPRCRERRRNERLRRESVCPV
# B2: Round 2 CTLA4BP 2x2-f3 (ligand)
# chain: VIYVTKEVKEVATLSCGHNVSVEELAQTRIYWQKEKKMVLIMMSGDMNIWPEYKNRTIFDITNNLSIVILALRPSDEGTECVVLKYEKDAFKREHLAEVTLSVKADFPTPSISDFEIPPSNIRRIICSTSGGFPEPHLSWLENGEELNAINTTVSQDPGTELYTVSSKLDFNMTTNHSFMCLIKYGHLRVNQTFNWNTPKQEHFPDNLLPSWAITLISVNGIFVICCLTYCFAPRCRERRRNERLRRESVCPV
# B3: Round 2 CTLA4BP 2x4-g9 (ligand)
# chain: VIHVTKEVKEVATLSCGHNVSVEELAQTRIYWQKDKKMVLTMMSGDMNIWPEYKNQTIFDITNNLSIVILALRPSDEGTYECVVLKYEKDAFKQEHLAEVMLSVKADFPTPSISDFEIPPSNIRRIICSTSGGFPEPRLAWMEDGEELNAISTTVSQDPGTELCTVSSKLDFNMTTNHSFMCLIRYGHLRVNQTFNWNTPKQEHFPDNLLPSWAITLISVKGIFVICCLTYCFAPRGRERKSNGRLRRESVHPV
# B4: Round 2 CTLA4BP 5x3-e8 (ligand)
# chain: VIHVTKEVKEVATLSCGHNVSVEELAQTRIYWQKEKKMVLTMMSGDMNIWPEYKNRTIFDITNNLSIVILALRPSDEGTYECVVLEYEKDAFKREHLAEVTLSVKADFPTPSISDFEIPTSNIRRIICSTSGGFPEPHLFWLENGEELNAINTTVSQDPETELYTVSSKLDFNMTANHSFVCLIKYGHLRVNQTFNWNTPKQEHFPDNLLPSWAITLISVNGIFVICCLTYCFAPGCRERRRNERLRRESVCPV
# B5: Round 2 CTLA4BP-5x4-11d (ligand)
# chain: VIHVTKEVKEVATLSCGLNVSVEELAQTRIHWQKEKKMVLTMMSGDMNIWPEYKNRTIFDITNNLSIVILALRPSDEGTYECVVLKYDKDAFKREHLAEVTLSVKADFPTPSISDFEIPPSNIRRIICSTSGGFPEPHLSWLENGEELNAINTTVSQDPETELYTVSSKLDFNMTANHSFVCLIKYGHLRVNQTFNWNTPKQEHFPDNLLPSWAITLISVNGIFVICCLTYRFAPRCRERKSNERLRRESVRPV
# B6: Round 2 CTLA4BP-5x5-2e (ligand)
# chain: B5 chain with D88E, T101M, T165A, A176T, V181M, R232C, K241R, S242R, R245T
# B7: Round 2 CTLA4BP-5x2-4c (ligand)
# chain: B4 chain with H18L, T101M, T120P, F140S, A150G, A176T, H178R, G236R, C252H
# B8: Round 2 CTLA4BP 5x6-f6 (ligand)
# chain: B4 chain with R29P, E86K, T101M, S114T, T120P, A176T, H178R, V220A, C232R, G236R
# B9: Round 2 CTLA4BP-5x6-9d (ligand)
# chain: B4 chain with Y31H, E86K, T101M, F140S, G236R, C252R
# B10: Round 2 CTLA4BP-5X2-12F (ligand)
# chain: VIHVTKEVKEVATLSCGHNVSVEELAQTRIHWQKEKKMVLTMMSGDMNIWPEYKNRTIFDITNNLSIVILALRPSDEGTYECVVLKYEKDAFKREHLAEVTLSVKADFPTPSITDFEIPPSNIKRIICSTSGGFPEPHLSWLENGEELNAINTTVSQDPETELYTVSSKLDFNMTTNHSFMCLIKYGHLRVNQTFNWNTPKQEHFPDNPLPSWAITLISANGIFVICCLTYCFAPRCRERRRNETLRRESVRPV
# B11: Round 2 CTLA4BP 5x4-a1 (ligand)
# chain: B4 chain with Y53H, E86K, S114T, F140S, E160G, A176T, H178R, G236R, C252R
# B12: Round 2 CTLA4BP-5x2-2g (ligand)
# chain: B5 chain with L18H, D88E, T101M, S114T, P120T, A176T, V181M
# B13: Round 2 CTLA4BP-5x3-10e (ligand)
# chain: B4 chain with T120P, T165A, A176T, V181M, V220A, G236R, R241K, R242S, C252H
# B14: Round 2 CTLA4BP 5x4-h1 (ligand)
# chain: VIHVTKEVKEVATLSCGHNVSVEELAQTRIHWQKEKKMVLTMMSGDMNIWPEYKNRTIFDITNNLSIVILALRPSDEGTYECVVLKYEKDAFKRKHLAEVMLSVKADFPTPSISDFEIPTSNIRRIICSTSGGFPEPHLFWLENGEELNAINTTASQDPETELYTVSSKLDFNMTTNRSFVCLIKYGHLRVNQTFNWNTPKQEHFPNNLLPSWAITLISVNGIFVICCLTYCFAPRCRERRRNETLRRESVHPV
# B15: Round 2 CTLA4BP-5x5-6e (ligand)
# chain: B10 chain with T101M, K124R, N152S, P200T, P209L, Y231H, R241K, T245R
# B16: Round 2 CTLA4BP-5x3-11b (ligand)
# chain: B10 chain with H31Y, P74S, K124R, N152S, H178R, M181V, P209L, A220V, R242S, T245R
# B17: Round 2 CTLA4BP-5x4-1f (ligand)
# chain: B4 chain with Y31H, E86K, T101M, A176T, V181M, G236R
# B18: Round 2 CTLA4BP-5x9-12c (ligand)
# chain: B10 chain with T101M, K124R, V155A, P209L, A220V, R241K, R242S, T245R
# B19: Round 2 CTLA4BP 5x9-d10 (ligand)
# chain: VIHVTKEVKEVATLSCGLNVSVEELAQTRIYWQKGKKMVLTMMSGDMNIWPEYKNRTIFDITNNLSIVILALRPSDEGTYECVVLEYEKDAFKREHLAEVMLSVKADFPTPSISDFEIPPSNIRRIICSTSGGFPEPHLSWLENGEELNAINTTASQDPGTELYTVSSKLDFNMTTNHSFMCLIKYGHLRVNQTFNWNTPKQEHFPDNLLPSWAITLISVNGIFVICCLTHCFAPRCRERRRNERLRRESARPV
# B20: Round 2 CTLA4BP-5x2-3c (ligand)
# chain: B4 chain with K6R, Y31H, E86K, T101M, F140S, E162G, A176T, V181M, G236R
# B21: Round 2 CTLA4BP 5x5-c10 (ligand)
# chain: B4 chain with S114T, T120P, N152S, T165A, A176T, V181M, P200T, G236R, C252H
# B22: Round 2 CTLA4BP-5x2-7b (ligand)
# chain: B10 chain with D107G, K124R, E160G, T176A, M181V, P209L, T245R
# B23: Round 2 CTLA4BP-5x8-1f (ligand)
# chain: VIHVTKEVKEVATLSCGHNVSVEELAQTRIHWQKEKKMVLTMMSGDMNIWPEYKNRTIFDITNNLSIVILALRPSDEGTYECVVLKYEKDAFKREHLAEVMLSVKADFPTPSITDFEIPPSNIRRIICSASGGFPEPHLFWLENGEELNAINTTVSQDPETELYAVSSKLDFNMTTNHSFMCLIRYGHLRVNQTFNWNTPKQEHFPDNLLPSWAITLISVNGIFVICCLTYCFAPRCRERKSNERLRRESVRPV
# B24: Round 2 CTLA4BP-5x3-6f (ligand)
# chain: B19 chain with L18H, P120T, G160E, V220A, T230A, H231Y, R236G, R241K, R242S, A251V
# B25: Round 2 CTLA4BP-5x2-8c (ligand)
# chain: B23 chain with V4M, H31Y, R94Q, A130T, M181V, R185K, V220A, K241R, S242R, R252H
# B26: Round 2 CTLA4BP-5x4-12c (ligand)
# chain: B23 chain with T114S, A130T, A165T, R185K, V220A, C232R, R245T
# notes: residues 1-34 left out as the signal peptide; also called CTLA-4BP 5×4-12c; clone R2 CTLA-4BP 5×4-12c
# B27: Round 2 CTLA4BP 5x5-h12 (ligand)
# chain: VIHVTKKVKEVATLSCGHNVSVEELAQTRIHWQKEKKMVLTMMSGDMNIWPEYKNRTIFDITNNLSIVILALRPSDEGTYECVVLKYEKDAFKREHLAEVMLSVKADFPTPSISDFEIPPSNIRRIICSTSGGFPEPHLSWLENGEELNAINTTVSQDPGTELYTVSSKLDFNMTTDRSFVCLIKYGHLRVNQTFNWNTPKQEHFPDNLLPSWAITLISVNGIFVICCLTYCFAPRCRERRRNGRLRRESVRPV
# Target: T1, Soluble CTLA-4-Ig (extracellular domain of human CTLA-4 fused to the Fc portion of human IgG1) (human, UniProt P16410 36-161, FITC-conjugated in the FACS binding assays)
# T1 construct: extracellular domain; bought from R&D Systems; also called sCTLA-4-Ig; CTLA-4-Ig Fc; not shown: Fc portion of human IgG1
# Assay: competitive FACS on transfected cells, FITC-sCTLA-4-Ig with biotin-sCD28-Ig; grade 0-2 of CTLA-4/CD28 ratio vs WT hB7-1
# T1 sequence (P16410 36-161): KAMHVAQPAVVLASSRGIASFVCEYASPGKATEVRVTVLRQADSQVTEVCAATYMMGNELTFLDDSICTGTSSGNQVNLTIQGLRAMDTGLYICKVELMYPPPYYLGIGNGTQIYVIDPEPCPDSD
row,Binder,Binding Score
1,B1,1
2,B2,1
3,B3,1
4,B4,1
5,B5,2
6,B6,2
7,B7,1
8,B8,1
9,B9,2
10,B10,1
11,B11,0
12,B12,2
13,B13,2
14,B14,2
15,B15,2
16,B16,1
17,B17,2
18,B18,2
19,B19,1
20,B20,2
21,B21,1
22,B22,1
23,B23,2
24,B24,2
25,B25,2
26,B26,2
27,B27,1
